Reference: the supplement of paper PMC5998384

Key:
HeLa Kyoto [1] = experiment: solubility change mitosis vs G1/S (difference of NP-40 vs SDS log2 ratios) (log2 ratio difference); higher = more soluble in mitosis
HeLa Kyoto [2] = experiment: thermal stability score vs G1/S (z-score of summed log2 fold changes over temperatures); higher = more thermally stable than in G1/S
HeLa Kyoto [3] = experiment: solubility in G1/S (NP-40 vs SDS abundance) (log2 ratio); higher = more soluble; settings: cell cycle stage: G1/S
HeLa Kyoto [4] = experiment: melting temperature (median over replicates), in situ; higher = more thermally stable
[5] = cell cycle stage: early G1 (4.5 h after nocodazole release)
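Wherever melting temperature (median over replicates), in situ is given: HeLa Kyoto cells synchronized by double thymidine or nocodazole block, proteins quantified by TMT10plex mass spectrometry, three independent biological replicates.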
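Wherever solubility change mitosis vs G1/S (difference of NP-40 vs SDS log2 ratios) is given: synchronized HeLa Kyoto cells (double thymidine block for G1/S, nocodazole release for mitosis), protein amounts in NP-40 versus SDS lysates quantified by mass spectrometry, three biological replicates.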
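Wherever solubility in G1/S (NP-40 vs SDS abundance) is given: HeLa Kyoto cells arrested at G1/S by double thymidine block, proteins quantified by TMT10plex mass spectrometry in mild NP-40 versus SDS extracts, three biological replicates.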
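Wherever thermal stability score vs G1/S (z-score of summed log2 fold changes over temperatures) is given: synchronized HeLa Kyoto cells, proteins quantified by TMT10plex mass spectrometry, three biological replicates, mitosis taken 0.5 h after nocodazole release, G1/S directly after double thymidine block.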

| Sequence | solubility change mitosis (log2) (HeLa Kyoto [1]) | thermal stability score (HeLa Kyoto [2]; [5]) | thermal stability score (HeLa Kyoto [2]; cell cycle stage: mitosis) | solubility in G1/S (log2) (HeLa Kyoto [3]) | melting temperature (HeLa Kyoto [4]; cell cycle stage: G1/S) [°C] | melting temperature (HeLa Kyoto [4]; cell cycle stage: mitosis) [°C] |
| --- | --- | --- | --- | --- | --- | --- |
| MTAVHAGNINFKWDPKSLEIRTLAVERLLEPLVTQVTTLVNTNSKGPSNKKRGRSKKAHVLAASVEQATENFLEKGDKIAKESQFLKEELVAAVEDVRKQGDLMKAAAGEFADDPCSSVKRGNMVRAARALLSAVTRLLILADMADVYKLLVQLKVVEDGILKLRNAGNEQDLGIQYKALKPEVDKLNIMAAKRQQELKDVGHRDQMAAARGILQKNVPILYTASQACLQHPDVAAYKANRDLIYKQLQQAVTGISNAAQATASDDASQHQGGGGGELAYALNNFDKQIIVDPLSFSEERFRPSLEERLESIISGAALMADSSCTRDDRRERIVAECNAVRQALQDLLSEYMGNAGRKERSDALNSAIDKMTKKTRDLRRQLRKAVMDHVSDSFLETNVPLLVLIEAAKNGNEKEVKEYAQVFREHANKLIEVANLACSISNNEEGVKLVRMSASQLEALCPQVINAALALAAKPQSKLAQENMDLFKEQWEKQVRVLTDAVDDITSIDDFLAVSENHILEDVNKCVIALQEKDVDGLDRTAGAIRGRAARVIHVVTSEMDNYEPGVYTEKVLEATKLLSNTVMPRFTEQVEAAVEALSSDPAQPMDENEFIDASRLVYDGIRDIRKAVLMIRTPEELDDSDFETEDFDVRSRTSVQTEDDQLIAGQSARAIMAQLPQEQKAKIAEQVASFQEEKSKLDAEVSKWDDSGNDIIVLAKQMCMIMMEMTDFTRGKGPLKNTSDVISAAKKIAEAGSRMDKLGRTIADHCPDSACKQDLLAYLQRIALYCHQLNICSKVKAEVQNLGGELVVSGVDSAMSLIQAAKNLMNAVVQTVKASYVASTKYQKSQGMASLNLPAVSWKMKAPEKKPLVKREKQDETQTKIKRASQKKHVNPVQALSEFKAMDSI [CTNNA1] | -0.0404 | -0.182 | -0.645 | 0.402 | 52.6 | 52.2 |
| MTDDKDVLRDVWFGRIPTCFTLYQDEITEREAEPYYLLLPRVSYLTLVTDKVKKHFQKVMRQEDISEIWFEYEGTPLKWHYPIGLLFDLLASSSALPWNITVHFKSFPEKDLLHCPSKDAIEAHFMSCMKEADALKHKSQVINEMQKKDHKQLWMGLQNDRFDQFWAINRKLMEYPAEENGFRYIPFRIYQTTTERPFIQKLFRPVAADGQLHTLGDLLKEVCPSAIDPEDGEKKNQVMIHGIEPMLETPLQWLSEHLSYPDNFLHISIIPQPTD [ATG5] | 0.0407 | -0.587 | 0.0242 | 0.406 | 54.2 | 53.6 |
| MTDGDYDYLIKLLALGDSGVGKTTFLYRYTDNKFNPKFITTVGIDFREKRVVYNAQGPNGSSGKAFKVHLQLWDTAGQERFRSLTTAFFRDAMGFLLMFDLTSQQSFLNVRNWMSQLQANAYCENPDIVLIGNKADLPDQREVNERQARELADKYGIPYFETSAATGQNVEKAVETLLDLIMKRMEQCVEKTQIPDTVNGGNSGNLDGEKPPEKKCIC [RAB27B] | -0.0223 | -1.38 | -2.39 | 0.00344 | 55.7 | 59.9 |
| MTDSKYFTTTKKGEIFELKAELNSDKKEKKKEAVKKVIASMTVGKDVSALFPDVVNCMQTDNLELKKLVYLYLMNYAKSQPDMAIMAVNTFVKDCEDPNPLIRALAVRTMGCIRVDKITEYLCEPLRKCLKDEDPYVRKTAAVCVAKLHDINAQLVEDQGFLDTLKDLISDSNPMVVANAVAALSEIAESHPSSNLLDLNPQSINKLLTALNECTEWGQIFILDCLANYMPKDDREAQSICERVTPRLSHANSAVVLSAVKVLMKFMEMLSKDLDYYGTLLKKLAPPLVTLLSAEPELQYVALRNINLIVQKRPEILKHEMKVFFVKYNDPIYVKLEKLDIMIRLASQANIAQVLAELKEYATEVDVDFVRKAVRAIGRCAIKVEQSAERCVSTLLDLIQTKVNYVVQEAIVVIKDIFRKYPNKYESVIATLCENLDSLDEPEARAAMIWIVGEYAERIDNADELLESFLEGFHDESTQVQLQLLTAIVKLFLKKPTETQELVQQVLSLATQDSDNPDLRDRGYIYWRLLSTDPVAAKEVVLAEKPLISEETDLIEPTLLDELICYIGTLASVYHKPPSAFVEGGRGVVHKSLPPRTASSESAESPETAPTGAPPGEQPDVIPAQGDLLGDLLNLDLGPPVSGPPLATSSVQMGAVDLLGGGLDSLMGDEPEGIGGTNFVAPPTAAVPANLGAPIGSGLSDLFDLTSGVGTLSGSYVAPKAVWLPAMKAKGLEISGTFTRQVGSISMDLQLTNKALQVMTDFAIQFNRNSFGLAPAAPLQVHAPLSPNQTVEISLPLSTVGSVMKMEPLNNLQVAVKNNIDVFYFSTLYPLHILFVEDGKMDRQMFLATWKDIPNENEAQFQIRDCPLNAEAASSKLQSSNIFTVAKRNVEGQDMLYQSLKLTNGIWVLAELRIQPGNPSCTDLELSLKCRAPEVSQHVYQAYETILKN [AP1B1] | -0.225 | -0.616 | 0.595 | 0.297 | 51.7 | 51.1 |
| MTDYGEEQRNELEALESIYPDSFTVLSENPPSFTITVTSEAGENDETVQTTLKFTYSEKYPDEAPLYEIFSQENLEDNDVSDILKLLALQAEENLGMVMIFTLVTAVQEKLNEIVDQIKTRREEEKKQKEKEAEEAEKQLFHGTPVTIENFLNWKAKFDAELLEIKKKRMKEEEQAGKNKLSGKQLFETDHNLDTSDIQFLEDAGNNVEVDESLFQEMDDLELEDDEDDPDYNPADPESDSAD [RWDD1] | 0.0192 | 0.855 | 0.947 | 0.348 | 52.7 | 54 |
| MTELETAMGMIIDVFSRYSGSEGSTQTLTKGELKVLMEKELPGFLQSGKDKDAVDKLLKDLDANGDAQVDFSEFIVFVAAITSACHKYFEKAGLK [S100P] | 0.32 | -0.94 | -5.53 | -0.525 | 54.1 | 51 |
| MTELRQRVAHEPVAPPEDKESESEAKVDGETASDSESRAESAPLPVSADDTPEVLNRALSNLSSRWKNWWVRGILTLAMIAFFFIIIYLGPMVLMIIVMCVQIKCFHEIITIGYNVYHSYDLPWFRTLSWYFLLCVNYFFYGETVTDYFFTLVQREEPLRILSKYHRFISFTLYLIGFCMFVLSLVKKHYRLQFYMFGWTHVTLLIVVTQSHLVIHNLFEGMIWFIVPISCVICNDIMAYMFGFFFGRTPLIKLSPKKTWEGFIGGFFATVVFGLLLSYVMSGYRCFVCPVEYNNDTNSFTVDCEPSDLFRLQEYNIPGVIQSVIGWKTVRMYPFQIHSIALSTFASLIGPFGGFFASGFKRAFKIKDFANTIPGHGGIMDRFDCQYLMATFVNVYIASFIRGPNPSKLIQQFLTLRPDQQLHIFNTLRSHLIDKGMLTSTTEDE [CDS2] | -0.168 | -3.65 | -6.01 | -0.102 | 57.3 | 56 |
| MTGRAMDPLPAAAVGAAAEAEADEEADPPASDLPTPQAIEPQAIVQQVPAPSRMQMPQGNPLLLSHTLQELLARDTVQVELIPEKKGLFLKHVEYEVSSQRFKSSVYRRYNDFVVFQEMLLHKFPYRMVPALPPKRMLGADREFIEARRRALKRFVNLVARHPLFSEDVVLKLFLSFSGSDVQNKLKESAQCVGDEFLNCKLATRAKDFLPADIQAQFAISRELIRNIYNSFHKLRDRAERIASRAIDNAADLLIFGKELSAIGSDTTPLPSWAALNSSTWGSLKQALKGLSVEFALLADKAAQQGKQEENDVVEKLNLFLDLLQSYKDLCERHEKGVLHKHQRALHKYSLMKRQMMSATAQNREPESVEQLESRIVEQENAIQTMELRNYFSLYCLHQETQLIHVYLPLTSHILRAFVNSQIQGHKEMSKVWNDLRPKLSCLFAGPHSTLTPPCSPPEDGLCPH [SNX8] | -0.153 | -2.07 | -2.85 | 0.249 | 54 | 55.7 |
